From article PMC9728185 come the findings set out here.

In the assay the target is Glycerol dehydrogenase from Klebsiella pneumoniae (encoded by gldA, strain MGH78578) (Klebsiella pneumoniae strain MGH78578). In words: SEC; analytical Superdex-200 10/300 GL, 20 mM Tris-HCl, 0.1 mM TCEP, 200 mM NaCl, pH 8.0, 0.5 ml/min; 200 ul of purified KpGlyDH at 4.94 mg/ml; masses from a standard curve of reference proteins; octamer and hexadecamer in equilibrium. In general terms: In gel filtration, larger molecules generally elute earlier.

Several values for one entry are separate records, joined by “and”; a condition that tells them apart may be missing. Equal values may be shown once.

The stoichiometry N is the number of molecules, sites or subunits per partner or assembly.

For the substance “Glycerol dehydrogenase from Klebsiella pneumoniae (encoded by gldA, strain MGH78578) (enzyme)”, the stoichiometry N is 8 and 16.
